Data as given in patent US20230002480A1.

Tests used:
Experiment in all cases: cell-based or functional assay
[1] = biological target: HIV-1 Env of pseudovirus 0815.v3.c3 (HIV-1)
[2] = biological target: HIV-1 Env of pseudovirus 1012_11_TC21_3257 (HIV-1)
[3] = biological target: HIV-1 Env of pseudovirus 191955_A11 (HIV-1)
[4] = biological target: HIV-1 Env of pseudovirus 231966.c02 (HIV-1)
[5] = biological target: HIV-1 Env of pseudovirus 246F C1G (HIV-1)
[6] = biological target: HIV-1 Env of pseudovirus 3301.v1.c24 (HIV-1)
[7] = biological target: HIV-1 Env of pseudovirus 3817.v2.c59 (HIV-1)
[8] = biological target: HIV-1 Env of pseudovirus 6041.v3.c23 (HIV-1)
[9] = biological target: HIV-1 Env of pseudovirus 6545.v4.c1 (HIV-1)
[10] = biological target: HIV-1 Env of pseudovirus 6811.v7.c18 (HIV-1)
[11] = biological target: HIV-1 Env of pseudovirus 928-28 (HIV-1)
[12] = biological target: HIV-1 Env of pseudovirus BJOX010000.06.2 (HIV-1)
[13] = biological target: HIV-1 Env of pseudovirus CNE19 (HIV-1)
[14] = biological target: HIV-1 Env of pseudovirus CNE30 (HIV-1)
[15] = biological target: HIV-1 Env of pseudovirus CNE5 (HIV-1)
[16] = biological target: HIV-1 Env of pseudovirus CNE8 (HIV-1)
[17] = biological target: HIV-1 Env of pseudovirus Ce703010054_2A2 (HIV-1)
[18] = biological target: HIV-1 Env of pseudovirus HIV-001428-2.42 (HIV-1)
[19] = biological target: HIV-1 Env of pseudovirus P0402_c2_11 (HIV-1)
[20] = biological target: HIV-1 Env of pseudovirus PVO.4 (HIV-1)
[21] = biological target: HIV-1 Env of pseudovirus Q769.d22 (HIV-1)
[22] = biological target: HIV-1 Env of pseudovirus QH0692.42 (HIV-1)
[23] = biological target: HIV-1 Env of pseudovirus R1166.c01 (HIV-1)
[24] = biological target: HIV-1 Env of pseudovirus REJO4541.67 (HIV-1)
[25] = biological target: HIV-1 Env of pseudovirus RHPA4259.7 (HIV-1)
[26] = biological target: HIV-1 Env of pseudovirus SC05_8C11_2344 (HIV-1)
[27] = biological target: HIV-1 Env of pseudovirus T257-31 (HIV-1)
[28] = biological target: HIV-1 Env of pseudovirus THRO4156.18 (HIV-1)
[29] = biological target: HIV-1 Env of pseudovirus WEAU_d15_410_787 (HIV-1)
[30] = biological target: HIV-1 Env of pseudovirus WITO4160.33 (HIV-1)
[31] = biological target: HIV-1 Env of pseudovirus ZM214M.PL15 (HIV-1)
[32] = biological target: HIV-1 Env of pseudovirus ZM249M.PL1 (HIV-1)
[33] = biological target: MuLV envelope (negative control pseudovirus)

B1: N49P23 (antibody, V domains shown)
VH: QVRLVQSGAGARKTGASMKLSCSTSGYTFTTHHGHFINWVRQARGQGLEWMGWMNPMTGQMNIEGKFQGRVTLTRDIYSDTAYMEMTRLTTGDTGTYYCARGDFGQNYPFHYWGQGSLVIVSS
VL: LSALTQPASVSGSPGQSVTISCSGTNRYLVSWYQQHPDKAPKLIIYDDNKRPSGISDRFSASRPDDTASLTISGLQTGDEATYWCASYERFGGGTRLTVLS
- IC50 [1]: 0.004 µg/mL
- IC80 [1]: 0.014 µg/mL
- MPI [1]: 100
- IC50 [2]: 0.013 µg/mL
- IC80 [2]: 0.085 µg/mL
- MPI [2]: 100
- IC50 [3]: > 50 µg/mL
- IC80 [3]: > 50 µg/mL
- MPI [3]: 31
- IC50 [4]: 0.035 µg/mL
- IC80 [4]: 0.158 µg/mL
- MPI [4]: 100
- IC50 [5]: > 50 µg/mL
- IC80 [5]: > 50 µg/mL
- MPI [5]: 11
- IC50 [6]: 0.017 µg/mL
- IC80 [6]: 0.058 µg/mL
- MPI [6]: 100
- IC50 [7]: > 50 µg/mL
- IC80 [7]: > 50 µg/mL
- MPI [7]: 41
- IC50 [8]: 7.47 µg/mL
- IC80 [8]: > 50 µg/mL
- MPI [8]: 63
- IC50 [9]: > 50 µg/mL
- IC80 [9]: > 50 µg/mL
- MPI [9]: 10
- IC50 [10]: 17.7 µg/mL
- IC80 [10]: > 50 µg/mL
- MPI [10]: 61
- IC50 [11]: 0.021 µg/mL
- IC80 [11]: 0.122 µg/mL
- MPI [11]: 100
- IC50 [12]: 0.284 µg/mL
- IC80 [12]: 2.08 µg/mL
- MPI [12]: 100
- IC50 [13]: > 50 µg/mL
- IC80 [13]: > 50 µg/mL
- MPI [13]: 40
- IC50 [14]: 0.143 µg/mL
- IC80 [14]: 0.68 µg/mL
- MPI [14]: 100
- IC50 [15]: 0.058 µg/mL
- IC80 [15]: 0.226 µg/mL
- MPI [15]: 100
- IC50 [16]: 6.35 µg/mL
- IC80 [16]: 47.3 µg/mL
- MPI [16]: 81
- IC50 [17]: > 50 µg/mL
- IC80 [17]: > 50 µg/mL
- MPI [17]: 35
- IC50 [18]: 0.036 µg/mL
- IC80 [18]: 0.241 µg/mL
- MPI [18]: 98
- IC50 [19]: 0.022 µg/mL
- IC80 [19]: 0.065 µg/mL
- MPI [19]: 100
- IC50 [20]: 0.087 µg/mL
- IC80 [20]: 0.43 µg/mL
- MPI [20]: 100
- IC50 [21]: 0.005 µg/mL
- IC80 [21]: 0.025 µg/mL
- MPI [21]: 100
- IC50 [22]: 0.557 µg/mL
- IC80 [22]: 2.51 µg/mL
- MPI [22]: 100
- IC50 [23]: 0.123 µg/mL
- IC80 [23]: 0.455 µg/mL
- MPI [23]: 100
- IC50 [24]: 0.008 µg/mL
- IC80 [24]: 0.05 µg/mL
- MPI [24]: 100
- IC50 [25]: 0.01 µg/mL
- IC80 [25]: 0.04 µg/mL
- MPI [25]: 100
- IC50 [26]: 0.133 µg/mL
- IC80 [26]: 0.548 µg/mL
- MPI [26]: 100
- IC50 [27]: 0.178 µg/mL
- IC80 [27]: 1.17 µg/mL
- MPI [27]: 100
- IC50 [28]: 1.98 µg/mL
- IC80 [28]: 10.7 µg/mL
- MPI [28]: 97
- IC50 [29]: 0.009 µg/mL
- IC80 [29]: 0.031 µg/mL
- MPI [29]: 100
- IC50 [30]: 0.045 µg/mL
- IC80 [30]: 0.205 µg/mL
- MPI [30]: 100
- IC50 [31]: 0.061 µg/mL
- IC80 [31]: 0.614 µg/mL
- MPI [31]: 100
- IC50 [32]: > 50 µg/mL
- IC80 [32]: > 50 µg/mL
- MPI [32]: 2
- IC50 [33]: > 50 µg/mL
- IC80 [33]: > 50 µg/mL
- MPI [33]: 9

B2: N49P22 (antibody, V domains shown)
V domain 1: HIQLLQSGPQVKKSGDTVRISCETSGYNFVDSRIHWVRQTPEKRLRWMGWINPLQGGVNYAPEFQGRIRMTRDTFIDTVYVDLSGLTPADTAYYYCARGIDGKSYPFHFWGHGTRVTVFS
V domain 2: RFALTQPASVSGSPGQTITITCAGGSVSWFHFPPGKTPRLIIYESSKRPSGVSPRFSGSQSGSTASLIISGLQSDDEGTYFCSILEFFGRGTLVTVLS
- IC50 [1]: 0.161 µg/mL
- IC80 [1]: 1.08 µg/mL
- MPI [1]: 98
- IC50 [2]: 15.7 µg/mL
- IC80 [2]: > 50 µg/mL
- MPI [2]: 53
- IC50 [3]: > 50 µg/mL
- IC80 [3]: > 50 µg/mL
- MPI [3]: 9
- IC50 [4]: 3.35 µg/mL
- IC80 [4]: > 50 µg/mL
- MPI [4]: 69
- IC50 [5]: > 50 µg/mL
- IC80 [5]: > 50 µg/mL
- MPI [5]: 10
- IC50 [6]: 2.82 µg/mL
- IC80 [6]: 48.8 µg/mL
- MPI [6]: 80
- IC50 [7]: > 50 µg/mL
- IC80 [7]: > 50 µg/mL
- MPI [7]: 12
- IC50 [8]: 7.55 µg/mL
- IC80 [8]: > 50 µg/mL
- MPI [8]: 66
- IC50 [9]: > 50 µg/mL
- IC80 [9]: > 50 µg/mL
- MPI [9]: 17
- IC50 [10]: 1 µg/mL
- IC80 [10]: 9.72 µg/mL
- MPI [10]: 92
- IC50 [11]: > 50 µg/mL
- IC80 [11]: > 50 µg/mL
- MPI [11]: 32
- IC50 [12]: > 50 µg/mL
- IC80 [12]: > 50 µg/mL
- MPI [12]: 0
- IC50 [13]: 0.873 µg/mL
- IC80 [13]: 8.19 µg/mL
- MPI [13]: 92
- IC50 [14]: > 50 µg/mL
- IC80 [14]: > 50 µg/mL
- MPI [14]: 30
- IC50 [15]: 0.281 µg/mL
- IC80 [15]: 1.55 µg/mL
- MPI [15]: 96
- IC50 [16]: 5.35 µg/mL
- IC80 [16]: 40.4 µg/mL
- MPI [16]: 86
- IC50 [17]: > 50 µg/mL
- IC80 [17]: > 50 µg/mL
- MPI [17]: 0
- IC50 [18]: 0.73 µg/mL
- IC80 [18]: 7.1 µg/mL
- MPI [18]: 91
- IC50 [19]: 5.93 µg/mL
- IC80 [19]: > 50 µg/mL
- MPI [19]: 73
- IC50 [20]: 0.433 µg/mL
- IC80 [20]: 1.49 µg/mL
- MPI [20]: 100
- IC50 [21]: 0.043 µg/mL
- IC80 [21]: 0.259 µg/mL
- MPI [21]: 100
- IC50 [22]: 0.592 µg/mL
- IC80 [22]: 2.02 µg/mL
- MPI [22]: 100
- IC50 [23]: 0.232 µg/mL
- IC80 [23]: 0.799 µg/mL
- MPI [23]: 100
- IC50 [24]: 0.792 µg/mL
- IC80 [24]: 12.1 µg/mL
- MPI [24]: 84
- IC50 [25]: 0.637 µg/mL
- IC80 [25]: 5.6 µg/mL
- MPI [25]: 92
- IC50 [26]: 0.251 µg/mL
- IC80 [26]: 2.16 µg/mL
- MPI [26]: 97
- IC50 [27]: > 50 µg/mL
- IC80 [27]: > 50 µg/mL
- MPI [27]: 43
- IC50 [28]: > 50 µg/mL
- IC80 [28]: > 50 µg/mL
- MPI [28]: 32
- IC50 [29]: 1.54 µg/mL
- IC80 [29]: > 50 µg/mL
- MPI [29]: 76
- IC50 [30]: 4.86 µg/mL
- IC80 [30]: > 50 µg/mL
- MPI [30]: 74
- IC50 [31]: > 50 µg/mL
- IC80 [31]: > 50 µg/mL
- MPI [31]: 25
- IC50 [32]: > 50 µg/mL
- IC80 [32]: > 50 µg/mL
- MPI [32]: 0
- IC50 [33]: > 50 µg/mL
- IC80 [33]: > 50 µg/mL
- MPI [33]: 8
